For test [1], the target named is T1, rI-FABP (SEQ ID NO: 3) variant BL22P1B11, MGI-KR14-14R 18L 25C 27A 38V 60R 73F 106L 115R 117D, SEQ ID NO: 35 (Rattus norvegicus, UniProt P02693, A74F/K101R/K126R/K17R/K21R/K28A/K30R/K38R/K47R/K51R/K89R/K8R/K93R/K95R/L39V/L73A/M19L/Q116R/R107L/V26C/V61R/Y118D/Y15R).
T1 construct: made in house
It is filed as binding.

Test [2] is classed as binding.
The mark [3] stands for this setting: Table 6, lysine labeled probes, Primary Fluor Acrylodan.
Where [4] appears, read: Table 6, Primary Fluor Acrylodan.
The mark [5] stands for this setting: Table 6, Primary Fluor Biotium CF750 SE.
The mark [6] stands for this setting: Table 6, Primary Fluor Kodak X-Sight 670 LSS dye.
Setting [7] is: Table 6, Primary Fluor LiCor IRDye 680 LT.
Where [8] appears, read: Table 6, Primary Fluor LiCor IRDye 700DX.

Where a chain is given by its changes, count along the chain named. Where two headings read alike, the source gives them in different places.

T1 sequence (P02693 with tags, fused parts or gaps with the stated changes): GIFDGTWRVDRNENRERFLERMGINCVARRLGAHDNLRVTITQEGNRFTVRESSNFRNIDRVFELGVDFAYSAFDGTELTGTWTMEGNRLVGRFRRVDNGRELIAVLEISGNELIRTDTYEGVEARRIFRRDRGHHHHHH

As usually defined, the Kd is the concentration at which binding is half-saturated. Low readings indicate tighter binding, high ones weaker binding. In test [1], `CC/C=C\C/C=C\C/C=C\CCCCCCCC(=O)O` [Linolenate 18:3 (n-3), Linolenate] had a Kd of 3460 nM.

B1: BL8P20 G3: SEQ 3 mutein: 18L, 38M, 60F, 73F, 106T, 115R, 117E (protein)
chain: AFDGTWKVDRNENYEKFLEKMGINVVKRKLGAHDNLKMTITQEGNKFTVKESSNFRNIDFVFELGVDFAYSAFDGTELTGTWTMEGNKLVGKFKRVDNGKELIAVTEISGNELIRTETYEGVEAKRIFKKDRGHHHHHH
modifications: acrylodan labeled; rat intestinal fatty acid binding protein with substitution of Xaa at one or more of 14, 18, 23, 25, 27, 31, 36, 38, 55, 60, 72, 73, 74, 78, 102, 104, 106, 115 and 117; rat intestinal fatty acid binding protein in which one amino acid residue may be substituted with cysteine or lysine; optional 6His tag at N terminus; Xaa=any amino acid
Regarding B1, the Kd in test [2] (setting [3]) is 2310 nM. This molecule yielded an Is in test [2] (setting [4]) of 0.09.

B2: BL8P21 E8: SEQ 3 mutein: 18L 38I 60H 73F 106D 115R 117E (protein)
chain: B1 chain with M38I, F60H, T106D
modifications: acrylodan labeled; rat intestinal fatty acid binding protein with substitution of Xaa at one or more of 14, 18, 23, 25, 27, 31, 36, 38, 55, 60, 72, 73, 74, 78, 102, 104, 106, 115 and 117; rat intestinal fatty acid binding protein in which one amino acid residue may be substituted with cysteine or lysine; optional 6His tag at N terminus; Xaa=any amino acid
The molecule B2 displayed a Kd in test [2] (setting [3]) of 3220 nM. The same molecule came in with an Is in test [2] (setting [4]) of 0.28.

B3: BL22P1B11 - 25K: SEQ 3 mutein: MGI - KR14 - 14R 18L 25K 27A 38V 60R 73F 106L 115R 117D (protein)
chain: B1 chain with Y14R, V25K, K27A, M38V, F60R, T106L, E117D
modifications: BL22P1B11; Tyr->Arg; Met-> Leu; Val-> Cys; Lys-> Ala; Leu-> Val; Val-> Arg; Leu-> Ala; Ala-> Phe; Arg-> Leu; Gln-> Arg; Tyr -> Asp; 6His tag at N terminus
B3: the Is in test [2] (setting [5]) was 0.19; in test [2] (setting [6]), 0.61; in test [2] (setting [7]), 0.67; in test [2] (setting [8]) it was 0.14. Further, the Kd came out at 9500 nM in test [2] (setting [5]), 700 nM in test [2] (setting [6]), 239 nM in test [2] (setting [7]) and 80 nM in test [2] (setting [8]).

B4: L1P1 C 12: SEQ 3 mutein: 38I 72W 117W (protein)
chain: B1 chain with L18M, M38I, F60V, A72W, F73A, T106R, R115Q, E117W
modifications: acrylodan label; rat intestinal fatty acid binding protein with substitution of Xaa at one or more of 14, 18, 23, 25, 27, 31, 36, 38, 55, 60, 72, 73, 74, 78, 102, 104, 106, 115 and 117; rat intestinal fatty acid binding protein in which one amino acid residue may be substituted with cysteine or lysine; optional 6His tag at N terminus; Xaa=any amino acid
In turn, B4 returned a Kd in test [2] (setting [3]) of 35.8 nM. The molecule also yielded an Is in test [2] (setting [4]) of 0.11.

B5: L1P14 D6: SEQ 3 mutein: 14M 72V 117W (protein)
chain: B1 chain with Y14M, L18M, M38L, F60V, A72V, F73A, T106R, R115Q, E117W
modifications: acrylodan label; rat intestinal fatty acid binding protein with substitution of Xaa at one or more of 14, 18, 23, 25, 27, 31, 36, 38, 55, 60, 72, 73, 74, 78, 102, 104, 106, 115 and 117; rat intestinal fatty acid binding protein in which one amino acid residue may be substituted with cysteine or lysine; optional 6His tag at N terminus; Xaa=any amino acid
Regarding B5, in test [2] (setting [3]), the Kd turned out to be 309 nM. For the same molecule, the Is in test [2] (setting [4]) stood at 0.04.

B6: BL8P9 G9: SEQ 3 mutein: 18L, 38A, 73F, 106V, 115R, 117D (protein)
chain: B1 chain with M38A, F60V, T106V, E117D
modifications: acrylodan labeled; rat intestinal fatty acid binding protein with substitution of Xaa at one or more of 14, 18, 23, 25, 27, 31, 36, 38, 55, 60, 72, 73, 74, 78, 102, 104, 106, 115 and 117; rat intestinal fatty acid binding protein in which one amino acid residue may be substituted with cysteine or lysine; optional 6His tag at N terminus; Xaa=any amino acid
B6 gave a Kd in test [2] (setting [3]) of 1050 nM. This molecule also came in with an Is in test [2] (setting [4]) of 0.29.

B7: L1P1 B4: SEQ 3 mutein: 14I 72W 117W (protein)
chain: B1 chain with Y14I, L18M, M38L, F60V, A72W, F73A, T106R, R115Q, E117W
modifications: acrylodan label; rat intestinal fatty acid binding protein with substitution of Xaa at one or more of 14, 18, 23, 25, 27, 31, 36, 38, 55, 60, 72, 73, 74, 78, 102, 104, 106, 115 and 117; rat intestinal fatty acid binding protein in which one amino acid residue may be substituted with cysteine or lysine; optional 6His tag at N terminus; Xaa=any amino acid
Molecule B7 came in with a Kd in test [2] (setting [3]) of 711 nM. The same molecule yielded an Is in test [2] (setting [4]) of 0.

B8: BL8P9 C9: SEQ 3 mutein: 18L, 38F, 60F, 73F, 106D, 115R, 117R (protein)
chain: B1 chain with M38F, T106D, E117R
modifications: acrylodan labeled; rat intestinal fatty acid binding protein with substitution of Xaa at one or more of 14, 18, 23, 25, 27, 31, 36, 38, 55, 60, 72, 73, 74, 78, 102, 104, 106, 115 and 117; rat intestinal fatty acid binding protein in which one amino acid residue may be substituted with cysteine or lysine; optional 6His tag at N terminus; Xaa=any amino acid
B8 came in with a Kd in test [2] (setting [3]) of 723 nM. Also, in test [2] (setting [4]), the Is is on record as 0.00.

(Values after patent US10295551B2, “Development and use of fluorescent probes of unbound bilirubin” (Alan Marc Kleinfeld, priority 2011, dated 2019).)
